# T1: DDX21Fl (human, UniProt Q9NR30 1-783)
# T1 sequence: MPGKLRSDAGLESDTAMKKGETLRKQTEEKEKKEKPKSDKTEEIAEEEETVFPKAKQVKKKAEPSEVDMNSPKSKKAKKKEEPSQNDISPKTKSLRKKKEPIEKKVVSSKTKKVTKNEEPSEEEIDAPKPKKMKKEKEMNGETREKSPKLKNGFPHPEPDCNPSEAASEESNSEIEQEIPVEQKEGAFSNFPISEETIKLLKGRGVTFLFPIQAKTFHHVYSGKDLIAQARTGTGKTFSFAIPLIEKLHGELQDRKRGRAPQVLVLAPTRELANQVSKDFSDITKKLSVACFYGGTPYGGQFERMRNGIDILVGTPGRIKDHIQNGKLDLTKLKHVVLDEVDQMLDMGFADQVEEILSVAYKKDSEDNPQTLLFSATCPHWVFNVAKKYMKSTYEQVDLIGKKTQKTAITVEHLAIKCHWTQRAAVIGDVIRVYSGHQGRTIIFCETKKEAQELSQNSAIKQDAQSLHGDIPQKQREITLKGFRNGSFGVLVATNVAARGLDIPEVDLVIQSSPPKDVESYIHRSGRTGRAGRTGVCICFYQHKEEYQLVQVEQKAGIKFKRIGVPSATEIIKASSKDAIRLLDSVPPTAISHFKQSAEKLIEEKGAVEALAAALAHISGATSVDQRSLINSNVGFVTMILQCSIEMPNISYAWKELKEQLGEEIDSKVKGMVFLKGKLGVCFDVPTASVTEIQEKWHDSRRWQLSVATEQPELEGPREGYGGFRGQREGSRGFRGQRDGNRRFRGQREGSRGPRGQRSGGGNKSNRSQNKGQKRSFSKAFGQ
# T2: DDX21ΔNC (human, UniProt Q9NR30 186-710)
# T2 sequence: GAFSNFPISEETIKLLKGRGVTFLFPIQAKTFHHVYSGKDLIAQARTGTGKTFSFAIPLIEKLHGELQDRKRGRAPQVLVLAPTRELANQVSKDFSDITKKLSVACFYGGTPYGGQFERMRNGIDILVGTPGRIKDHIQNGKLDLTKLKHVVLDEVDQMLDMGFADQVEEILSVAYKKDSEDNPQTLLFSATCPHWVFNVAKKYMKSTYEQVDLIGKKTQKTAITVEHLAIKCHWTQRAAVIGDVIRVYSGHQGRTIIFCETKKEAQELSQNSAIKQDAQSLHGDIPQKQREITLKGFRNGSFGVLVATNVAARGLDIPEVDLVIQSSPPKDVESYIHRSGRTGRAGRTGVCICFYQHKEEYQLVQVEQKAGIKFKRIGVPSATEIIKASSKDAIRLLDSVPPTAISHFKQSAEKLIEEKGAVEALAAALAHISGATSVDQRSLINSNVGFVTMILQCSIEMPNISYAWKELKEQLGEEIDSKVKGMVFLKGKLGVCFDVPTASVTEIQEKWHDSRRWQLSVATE
# Tests used:
# DDX21Fl = molecular target: T1, DDX21Fl; experiment: fluorescence polarization; no ATP; 50 mM KCl; FP: 50 mM Tris pH 7.5, 50 mM KCl, 5 mM MgCl2, no ATP; Hill-slope fit; temperature not given in the material; details: protein: recombinant; tags: N-terminal Trx-His6, cut with thrombin; chain copies: 2; label: 5'-FAM; G4
# DDX21ΔNC = molecular target: T2, DDX21ΔNC; experiment: fluorescence polarization; 50 mM KCl (Table S2 prints 36.7); FP: 50 mM Tris pH 7.5, 50 mM KCl, 5 mM MgCl2, no ATP; Hill-slope fit; temperature not given in the material; details: protein: recombinant; chain copies: 2; label: 5'-FAM; G4
binder,measurement,setting,value
GUUGGGGCGGGCGUUGGGUUUGGGGGGACG (structured_RNA) [Q2 RNA G-quadruplex],Kd,DDX21Fl,2.6 ± 0.1 nM
same,Kd,DDX21ΔNC,36.5 ± 2.7 nM
